The record followed here is PMC7016029.

Like-named read-outs stand apart in the source and are kept apart here.

Series [1] addresses T1, VEGFR-1 Fc chimera (UniProt P17948 27-758). Description: SPR. Background: SPR reads the build-up and loss of mass on a sensor chip optically.
The target in series [2] is T1, VEGFR-1 Fc chimera. Description: SPR. This is another data set of the same source.

T1 sequence (P17948 27-758, change not shown): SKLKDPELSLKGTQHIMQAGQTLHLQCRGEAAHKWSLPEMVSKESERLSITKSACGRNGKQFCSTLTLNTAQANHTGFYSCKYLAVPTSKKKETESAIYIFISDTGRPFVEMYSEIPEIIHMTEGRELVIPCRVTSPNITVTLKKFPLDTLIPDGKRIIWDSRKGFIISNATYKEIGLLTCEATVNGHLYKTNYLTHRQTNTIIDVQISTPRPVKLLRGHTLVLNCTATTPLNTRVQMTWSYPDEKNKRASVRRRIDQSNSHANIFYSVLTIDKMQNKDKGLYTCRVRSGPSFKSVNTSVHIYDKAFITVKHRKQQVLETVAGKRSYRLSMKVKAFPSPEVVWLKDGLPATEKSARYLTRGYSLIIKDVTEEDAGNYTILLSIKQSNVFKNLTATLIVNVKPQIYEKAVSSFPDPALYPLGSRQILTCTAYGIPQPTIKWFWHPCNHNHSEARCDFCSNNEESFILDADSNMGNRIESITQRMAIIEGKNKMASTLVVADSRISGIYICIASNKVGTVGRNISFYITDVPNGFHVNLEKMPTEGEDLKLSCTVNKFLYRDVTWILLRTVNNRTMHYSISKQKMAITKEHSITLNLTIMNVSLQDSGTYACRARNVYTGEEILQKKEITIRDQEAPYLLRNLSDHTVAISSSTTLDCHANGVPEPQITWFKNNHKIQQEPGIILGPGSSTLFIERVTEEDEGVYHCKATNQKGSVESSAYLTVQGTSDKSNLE

GTCGTGTTTGTTGTTGTTTTCATTTTTGCGGCCC (structured_DNA) [Apt01]: in the series with VEGFR-1 Fc chimera [1], binding was characterised by a dissociation constant (Kd) of 3.3 nM.

Molecule GCTGATAGGATGGGTTGTAGGTCTAGGGGGGGGCC (structured_DNA) [Apt02] registered a Kd with VEGFR-1 Fc chimera [2] of 1.5 nM.

For orientation: Kd means a measure of binding affinity in units of concentration. A higher Kd goes with a looser complex.
